Broadly, the koff is the rate constant with which the complex falls apart. The kon is the rate constant with which the complex forms. By EC50 is commonly meant the midpoint of the concentration-response curve.

Like-named read-outs stand apart in the source and are kept apart here. Some results are limits rather than exact numbers.

Five molecules from patent US20240392003A1 (NUMAB THERAPEUTICS, published 2024) can be followed below.

The target in assay [1] is T1, recombinant human ROR1 protein (Fc-Tag, Acro Biosystems RO1-H5250) (human, UniProt Q01973 30-406).
T1 construct: Bought; also called hROR1; recombinant human ROR1 ECD; not shown: Fc tag
Description: SPR; hROR1-Fc immobilized. (In general: SPR reads the build-up and loss of mass on a sensor chip optically.)

Assay [2] has as its target T2, recombinant human CD3 epsilon extra-cellular domain protein (His-Tag, SinoBiological) (human, UniProt P07766 23-126).
T2 construct: extracellular domain; Bought; also called hCD3ε; human CD3ε; not shown: His tag
Description: SPR; hCD3ε immobilized, two-state fit.

In assay [3] the target is T2, recombinant human CD3 epsilon …. The assay can be described thus: SPR; hCD3ε immobilized, two-state fit (kd1).
For assay [4] the target is unchanged. Description: SPR; hCD3ε immobilized, two-state fit (ka1).
Assay [5] deals with T3, human serum albumin (Sigma-Aldrich A3782) (human, UniProt P02768 25-609).
T3 construct: also called hSA; HSA
Description: SPR; hSA immobilized, pH 5.5.

Assay [6] has as its target T4, human ROR1 expressed on cells (human, UniProt Q01973 30-937).
T4 construct: whole, on cells; One molecule for cell-surface ROR1 on all cell lines; the cell line is named under assay; also called hROR1; plasma membrane human ROR1
Description: flow cytometry, MDA-MB-231 cells. (In general: A flow cytometer gives signals particle by particle.)

Assay [7] deals with T1, recombinant human ROR1 protein (Fc-Tag, …). Description: SPR; hROR1-Fc immobilized. The source holds these as a separate data set.
The target in assay [8] is T2, recombinant human CD3 epsilon …. The assay can be described thus: SPR; hCD3ε immobilized, two-state fit (kd1). This is another data set of the same source.
The target in assay [9] is T5, human ROR1 (Peprotech 160-054) (human, UniProt Q01973 30-406).
T5 construct: Bought, used as analyte; also called hROR1; recombinant human ROR1 protein
The assay can be described thus: SPR; MATCH4 captured, hROR1 analyte (Affinity).

Assay [10] addresses T1, recombinant human ROR1 protein (Fc-Tag, …). The assay can be described thus: SPR; hROR1-Fc immobilized (Avidity).
The target in assay [11] is T2, recombinant human CD3 epsilon …. The assay can be described thus: SPR; hCD3ε immobilized, two-state fit (Ka1).
Assay [12] has the same target. The assay can be described thus: SPR; hCD3ε immobilized, two-state fit. This is another data set of the same source.

B1: PRO2667 (bispecific antibody)
chain: AFELTQSPSSLSASVGDRVTITCQASESINSRLAWYQQKPGQPPKLLIYDASDLTSGVPSRFSGSGSGTDFTLTISSLQPEDFATYYCQGYGGSSTTTFGCGTKLTVLGGGGGSEVQLVESGGGRVQPGGSLRLSCAASGFSLSSYDMSWVRQAPGKGLAWIGASYASGPTYYASWAKGRFTISRDNSKNTVYLQMNSLRAEDTATYFCARGGWTGTSHSNIWGQGTQVTVSSGGGGSGGGGSGGGGSGGGGSDIQMTQSPSSLSASVGDRVTITCQSSQSVFSNNYLAWFQQKPGQSPKRLIYSASTLASGVPSRFSGSGSGTDFTLTISSLQPEDFATYYCLGSYACSSADCYVFGTGTKVTVLGGGGGSEVQLVESGGGRVQPGGSLRLSCAASGFSLSSYAMNWVRQAPGKCLEWIGHINAGDIAYYATWAKGRFTISRDNSKNTVYLQMNSLRAEDTATYFCARGAGGFSTGPFKLWGQGTQVTVSSGGGGSGGGGSDVQMTQSPSSLSASVGDRVTITCRASENIYSGLAWYQQKPGKPPKLLIYRASTLASGVSSRFSGSGSGTDFTLTISSLQPEDFATYYCQGGYYSSSSTYIAFGTGTKVTVLGGGGGSGGGGSGGGGSGGGGSQSQVVESGGGRVQPGGSLRLSCAVSGFDLSSYAVSWVRQAPGKGLEWIGIIYPRANTYYASWAKGRFTISKDNSKNTVYLQMNSLRAEDTATYFCARDRYDSGAYLYTTYFNLWGQGTQVTVSS
notes: trispecific anti-ROR1 x hSA x CD3 scMATCH3, single chain, modified VH domains; also called 19-04-A10-sc06(RTQ) scDb-o/28-21-D09-sc04 (RTQ) scDb-i/55-38-D07-sc02(RTQ)-scFv
In the case of B1, in [1], the Kd was found to be 0.97 nM, the dissociation rate constant (koff) amounted to 9.2e-05 s⁻¹ and the kon is 95000 M⁻¹ s⁻¹. Further, in assay [2], the Kd stood at 4.4 nM, the ka2 was 0.0045 s⁻¹ and the kd2 stood at 0.0061 s⁻¹. Further, in assay [3], the koff came out at 0.0041 s⁻¹. Besides, the kon in assay [4] was 540000 M⁻¹ s⁻¹.

B2: PRO2558 (bispecific antibody)
chain: AFELTQSPSSLSASVGDRVTITCQASESINSRLAWYQQKPGQPPKLLIYDASDLTSGVPSRFSGSGSGTDFTLTISSLQPEDFATYYCQGYGGSSTTTFGCGTKLTVLGGGGGSEVQLVESGGGLVQPGGSLRLSCAASGFSLSSYDMSWVRQAPGKGLAWIGASYASGPTYYASWAKGRFTISRDNSKNTVYLQMNSLRAEDTATYFCARGGWTGTSHSNIWGQGTLVTVSSGGGGSGGGGSGGGGSGGGGSDIQMTQSPSSLSASVGDRVTITCQSSQSVFSNNYLAWFQQKPGQSPKRLIYSASTLASGVPSRFSGSGSGTDFTLTISSLQPEDFATYYCLGSYACSSADCYVFGTGTKVTVLGGGGGSEVQLVESGGGLVQPGGSLRLSCAASGFSLSSYAMNWVRQAPGKCLEWIGHINAGDIAYYATWAKGRFTISRDNSKNTVYLQMNSLRAEDTAVYFCARGAGGFSTGPFKLWGQGTLVTVSS
modifications: Interdomain disulfide in the hSA domain (VH G51C / VL G141C, AHo numbering).
notes: also called 19-04-A10-sc06 scDb-o/28-21-D09-sc04 scDb-i/56-22-A05-sc02 scFv; not shown: C-terminal 56-22-A05-sc02 scFv and the linker leading to it
For the molecule B2, in assay [5], the Kd was 4.4 nM, the koff was 0.002 s⁻¹ and the kon is 460000 M⁻¹ s⁻¹.

B3: PRO2291 (scFv, V domains shown)
VH: QSQVVESGGGLVQPGGSLRLSCAVSGFDLSSYAVSWVRQAPGKCLEWIGIIYPRANTYYASWAKGRFTISKDNSKNTVYLQMNSLRAEDTAVYFCARDRYDSGAYLYTTYFNLWGQGTLVTVSS
VL: DVQMTQSPSSLSASVGDRVTITCRASENIYSGLAWYQQKPGKPPKLLIYRASTLASGVSSRFSGSGSGTDFTLTISSLQPEDFATYYCQGGYYSSSSTYIAFGCGTKVTVLG
notes: scFv, PRO2060 with VL-VH interdomain disulfide (AHo 141VL-51VH); also called 55-38-D07-sc06
Take B3: in [6], the EC50 was 2.74 nM and the “Rel. maximum binding (MFIscFv/MFIPRO2213)” value turned out to be 1.18. Also, in [7], the Kd is 1.12 nM, the koff worked out at 0.000302 s⁻¹ and the kon came out at 269000 M⁻¹ s⁻¹.

B4: PRO2669 (bispecific antibody)
chain 1: DVQMTQSPSSLSASVGDRVTITCRASENIYSGLAWYQQKPGKPPKLLIYRASTLASGVSSRFSGSGSGTDFTLTISSLQPEDFATYYCQGGYYSSSSTYIAFGTGTKVTVLGGGGGSGGGGSGGGGSGGGGSQSQVVESGGGRVQPGGSLRLSCAVSGFDLSSYAVSWVRQAPGKGLEWIGIIYPRANTYYASWAKGRFTISKDNSKNTVYLQMNSLRAEDTATYFCARDRYDSGAYLYTTYFNLWGQGTQVTVSSGGGGSGGGGSAFELTQSPSSLSASVGDRVTITCQASESINSRLAWYQQKPGQPPKLLIYDASDLTSGVPSRFSGSGSGTDFTLTISSLQPEDFATYYCQGYGGSSTTTFGCGTKLTVLGGGSGGSDIQMTQSPSSLSASVGDRVTITCQSSQSVFSNNYLAWFQQKPGQSPKRLIYSASTLASGVPSRFSGSGSGTDFTLTISSLQPEDFATYYCLGSYACSSADCYVFGTGTKVTVLG
chain 2: DVQMTQSPSSLSASVGDRVTITCRASENIYSGLAWYQQKPGKPPKLLIYRASTLASGVSSRFSGSGSGTDFTLTISSLQPEDFATYYCQGGYYSSSSTYIAFGTGTKVTVLGGGGGSGGGGSGGGGSGGGGSQSQVVESGGGRVQPGGSLRLSCAVSGFDLSSYAVSWVRQAPGKGLEWIGIIYPRANTYYASWAKGRFTISKDNSKNTVYLQMNSLRAEDTATYFCARDRYDSGAYLYTTYFNLWGQGTQVTVSSGGGGSGGGGSEVQLVESGGGRVQPGGSLRLSCAASGFSLSSYDMSWVRQAPGKGLAWIGASYASGPTYYASWAKGRFTISRDNSKNTVYLQMNSLRAEDTATYFCARGGWTGTSHSNIWGQGTQVTVSSGGGSGGGSGGGSGEVQLVESGGGRVQPGGSLRLSCAASGFSLSSYAMNWVRQAPGKCLEWIGHINAGDIAYYATWAKGRFTISRDNSKNTVYLQMNSLRAEDTATYFCARGAGGFSTGPFKLWGQGTQVTVSS
notes: heterodimeric MATCH4, modified VH domains, variant of PRO2589; also called MATCH4 with 55-38-D07-sc02(RTQ) / 19-04-A10-sc02(RTQ) diS / 28-21-D09-sc04(RTQ) / 55-38-D07-sc02(RTQ)
B4: the koff in assay [8] is 0.0047 s⁻¹; in assay [9] it was under 1e-05 s⁻¹; in assay [10], 2.6e-05 s⁻¹. Moreover, the values for the Kd in assay [9], in [10] and in assay [12] were at most 0.177 nM, 0.026 nM and 2.7 nM, respectively. Also, the kon in assay [9] worked out at 56600 M⁻¹ s⁻¹; in assay [10] it was 1e+06 M⁻¹ s⁻¹; in assay [11], 810000 M⁻¹ s⁻¹. The Ka2 in assay [12] is 0.0056 s⁻¹. Also, the Kd2 in assay [12] is 0.0047 s⁻¹.

B5: PRO2292 (scFv, V domains shown)
VH: QSQLVESGGGLVQPGGSLRLSCAVSGLSLSRNAMSWVRQAPGKCLEWIGIILTSGSTYYASWAKGRFTISKDNSKNTVYLQMNSLRAEDTAVYFCVRGIASSSLKSFWGQGTLVTVSS
VL: AQQLTQSPSSLSASVGDRVTITCQASQNVWNNNYLSWFQQKPGKPPKLLIVTASTLASGVSSRFSGSGSGTDFTLTISSLQPEDFATYYCAGGFSGEIRAFGCGTKVTVLG
notes: scFv, PRO2062 with VL-VH interdomain disulfide (AHo 141VL-51VH); also called 55-39-G02-sc05
As for B5, in assay [6], the EC50 came out at 0.27 nM and the “Rel. maximum binding (MFIscFv/MFIPRO2213)” value stood at 1.18. Also, in assay [7], the Kd amounted to 0.0906 nM, the koff is 0.000616 s⁻¹ and the on-rate (kon) is 6.8e+06 M⁻¹ s⁻¹.
